From patent US20190055316A1
pKd: −log10 of the molar value.

Tests used:
Soluble human MSLN [1] = biological target: Soluble human MSLN (UniProt Q13421); test: Biacore
Soluble human MSLN [2] = biological target: Soluble human MSLN (UniProt Q13421); test: Biacore; published value
Native hu MSLN (cells) = Native hu MSLN (cells) (UniProt Q13421); test: KinExA
Sequence of Native hu MSLN (cells) (Q13421 296-606): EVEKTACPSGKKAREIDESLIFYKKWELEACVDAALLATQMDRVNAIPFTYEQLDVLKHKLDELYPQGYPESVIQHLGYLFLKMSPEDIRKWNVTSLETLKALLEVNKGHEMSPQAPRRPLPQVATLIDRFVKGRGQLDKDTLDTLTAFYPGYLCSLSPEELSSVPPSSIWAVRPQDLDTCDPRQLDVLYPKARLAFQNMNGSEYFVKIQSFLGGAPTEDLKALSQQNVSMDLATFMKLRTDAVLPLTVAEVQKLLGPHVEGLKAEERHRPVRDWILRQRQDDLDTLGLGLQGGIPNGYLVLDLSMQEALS

Sequence of Soluble human MSLN (Q13421 296-606): as above

Morab-009 (ssI CDRs)
pKd (Soluble human MSLN [1]): 9.80
pKd (Soluble human MSLN [2]): 8.82
pKd (Native hu MSLN (cells)): 11.66
